Source: paper PMC2949298 (Nature structural & molecular biology, 2010)

Columns and labels:
Assay in all cases: SPR
[1] = target: UC1_(Full-length) (V1V2-containing UC1 gp120, HIV-2) with sCD4 (HIV-2 isolate UC1 gp120; human CD4, UniProt Q76638;PDB, strain)
[2] = target: soluble CD4 (domains 1 and 2 from human CD4) (human)
[3] = target: CAP210–sCD4 complex (core CAP210 gp120 with sCD4) (HIV-1 clade C CAP210.2.00.E8 gp120; …, strain)

B1: 21c Fab (Fab, V domains shown)
VH: QVQVVQSGAEVRKPGASVKVSCKVSGFTLTGLSIHWVRQAPGKGLEWMGGFGPEENEIIYAQKFQGRVSMTEDTSTNTAYMELSSLRSEDTAVYYCATGGNYYNLWTGYYPLAYWGQGTLVTVSS
VL: QSVLTQPPSVSAAPGQKVTISCSGSSSNIGKNYVSWYQQLPGAAPKLLIFDDTQRPSGIPDRFSGSKSGTSATLAITGLQTGDEADYYCGTWDSSLSTGQLFGGGTKLTVL
binding result [1]: binds
Kd [2]: > 100000 nM
Kd [3]: 1600 nM
